Literature values as cited in patent US9233143B2, “Medicinal agent for preventing exacerbation of malignant tumor, comprising combination of natriuretic peptide receptor GC-A and GC-B agonists” (National Cerebral and Cardiovascular Center, priority 2011, dated 2016).
Bridge positions count the residues as written; N and C are the ends. Ends that are not written are not given here.

Biological target: T1, natriuretic peptide receptor GC-B (Homo sapiens, UniProt P20594)
T1 sequence (P20594 23-1047): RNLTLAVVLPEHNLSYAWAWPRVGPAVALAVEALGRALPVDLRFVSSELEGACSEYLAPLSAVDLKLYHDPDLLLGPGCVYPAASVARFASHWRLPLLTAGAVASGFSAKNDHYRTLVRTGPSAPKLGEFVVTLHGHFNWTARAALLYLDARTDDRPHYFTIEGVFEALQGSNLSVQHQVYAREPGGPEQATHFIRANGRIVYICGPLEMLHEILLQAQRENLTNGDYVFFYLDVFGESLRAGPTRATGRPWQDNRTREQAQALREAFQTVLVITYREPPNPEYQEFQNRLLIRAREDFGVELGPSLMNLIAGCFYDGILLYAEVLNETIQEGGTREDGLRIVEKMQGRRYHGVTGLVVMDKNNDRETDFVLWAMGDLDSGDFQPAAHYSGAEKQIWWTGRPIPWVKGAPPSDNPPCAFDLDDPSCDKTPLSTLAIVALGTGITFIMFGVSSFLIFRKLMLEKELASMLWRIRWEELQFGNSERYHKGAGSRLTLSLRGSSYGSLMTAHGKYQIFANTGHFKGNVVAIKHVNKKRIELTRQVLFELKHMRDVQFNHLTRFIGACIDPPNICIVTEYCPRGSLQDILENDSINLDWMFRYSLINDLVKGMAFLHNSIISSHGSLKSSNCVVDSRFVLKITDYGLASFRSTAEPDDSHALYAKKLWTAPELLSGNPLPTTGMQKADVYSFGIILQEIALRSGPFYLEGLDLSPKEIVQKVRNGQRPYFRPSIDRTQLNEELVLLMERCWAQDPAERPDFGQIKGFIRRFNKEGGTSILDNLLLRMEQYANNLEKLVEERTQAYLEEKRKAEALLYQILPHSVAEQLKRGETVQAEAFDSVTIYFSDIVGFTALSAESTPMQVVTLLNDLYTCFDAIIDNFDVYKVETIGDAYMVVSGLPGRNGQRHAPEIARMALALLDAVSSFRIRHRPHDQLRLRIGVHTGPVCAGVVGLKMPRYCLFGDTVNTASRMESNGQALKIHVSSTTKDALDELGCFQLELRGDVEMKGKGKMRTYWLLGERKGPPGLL
Details: literature reports; cited from earlier work

Substance: hCNP6-22: a peptide consisting of amino acids from position 6 to position 22 of SEQ ID NO: 7 (only the ring structure) (CFGLKLDRIGSMSGLGC; disulfide 1-17 (inferred); listed as Homo sapiens)
- GC-B agonist activity: comparable to that of hCNP-22
